Reference: publication PMC12307597

Molecular target: pFAST_(99-114)–FRB–pFAST_(1-98)
Experiment: split reporter

**Q.** How did the percent complementation at 5 μM HBR-2,5DM without rapamycin turn out when FKBP–pFAST_(115-125) was run?
**A.** < 6.5%
